Assay results from US6706266, “Oncostatin M antagonists” (SmithKline Beecham Corporation).
Values joined by “and” are separate entries in the source; they are usually repeats but may differ in a detail not shown here. Equal values may be shown once.

T1: oncostatin M (hOSM, mature) (Homo sapiens) (UniProt P13725)
T1 sequence: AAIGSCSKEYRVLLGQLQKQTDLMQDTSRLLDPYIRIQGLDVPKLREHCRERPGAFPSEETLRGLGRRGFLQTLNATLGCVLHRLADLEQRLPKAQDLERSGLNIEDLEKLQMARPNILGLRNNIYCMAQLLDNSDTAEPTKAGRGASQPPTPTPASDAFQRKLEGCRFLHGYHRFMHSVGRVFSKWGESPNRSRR

T2: gp130-Fc fusion protein (human, UniProt P40189 23-619)
T2 construct: extracellular domain; not shown: Fc fragment of human IgG1
T2 sequence (looked up): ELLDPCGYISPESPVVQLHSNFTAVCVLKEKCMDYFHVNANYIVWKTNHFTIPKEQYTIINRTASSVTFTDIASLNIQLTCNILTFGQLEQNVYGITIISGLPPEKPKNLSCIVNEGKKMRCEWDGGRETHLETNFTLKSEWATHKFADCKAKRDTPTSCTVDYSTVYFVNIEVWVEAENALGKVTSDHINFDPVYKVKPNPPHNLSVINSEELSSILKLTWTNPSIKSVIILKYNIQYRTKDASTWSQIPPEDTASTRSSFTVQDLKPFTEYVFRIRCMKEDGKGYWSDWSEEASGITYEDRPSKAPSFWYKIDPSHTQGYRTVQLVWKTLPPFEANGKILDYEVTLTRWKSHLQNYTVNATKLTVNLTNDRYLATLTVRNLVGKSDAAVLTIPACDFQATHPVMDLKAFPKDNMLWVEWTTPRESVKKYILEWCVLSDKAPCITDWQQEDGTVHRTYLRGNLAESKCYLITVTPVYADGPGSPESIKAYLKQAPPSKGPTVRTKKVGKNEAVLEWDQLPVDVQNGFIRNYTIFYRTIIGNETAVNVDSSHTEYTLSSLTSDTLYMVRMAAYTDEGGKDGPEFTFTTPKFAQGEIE

T3: gp130 on HepG2 B6 cells (UniProt P40189 23-918, limits assumed)
T3 sequence (looked up): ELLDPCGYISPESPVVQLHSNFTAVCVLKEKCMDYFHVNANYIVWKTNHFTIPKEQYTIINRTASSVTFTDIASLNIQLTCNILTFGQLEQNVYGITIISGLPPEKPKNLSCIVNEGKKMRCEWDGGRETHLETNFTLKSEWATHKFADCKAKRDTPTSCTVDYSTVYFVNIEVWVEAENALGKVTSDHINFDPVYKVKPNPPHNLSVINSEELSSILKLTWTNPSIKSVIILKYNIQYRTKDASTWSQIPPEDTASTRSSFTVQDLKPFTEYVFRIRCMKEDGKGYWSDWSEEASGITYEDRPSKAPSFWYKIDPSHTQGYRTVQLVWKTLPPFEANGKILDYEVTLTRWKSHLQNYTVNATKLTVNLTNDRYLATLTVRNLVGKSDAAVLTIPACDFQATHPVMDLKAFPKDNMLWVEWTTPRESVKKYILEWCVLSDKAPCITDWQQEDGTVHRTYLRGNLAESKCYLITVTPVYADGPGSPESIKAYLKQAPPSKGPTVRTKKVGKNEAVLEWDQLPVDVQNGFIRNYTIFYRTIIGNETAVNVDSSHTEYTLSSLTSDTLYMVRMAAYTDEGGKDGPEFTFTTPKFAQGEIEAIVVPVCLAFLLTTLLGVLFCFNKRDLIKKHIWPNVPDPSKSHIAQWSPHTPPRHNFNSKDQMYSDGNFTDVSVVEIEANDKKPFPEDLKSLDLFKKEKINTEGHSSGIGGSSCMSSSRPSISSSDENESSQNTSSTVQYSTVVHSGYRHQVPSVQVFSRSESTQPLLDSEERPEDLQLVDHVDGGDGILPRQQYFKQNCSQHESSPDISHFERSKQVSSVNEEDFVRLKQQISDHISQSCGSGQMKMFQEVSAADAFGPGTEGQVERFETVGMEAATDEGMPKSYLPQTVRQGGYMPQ


Assays:
[1] = biological target: T1, oncostatin M (hOSM, mature) (Homo sapiens); assay: filter; conditions: 2'-F pyrimidines; no affinity at any concentration tested
gp130-Fc fusion protein [2] = biological target: T2, gp130-Fc fusion protein; assay: competition ELISA: OSM-GST titrated against plate-bound wt OSM for gp130-Fc; mean
Protocol: (§1) Plates were washed (×6 in PBS 0.05% tween 20, using Skatron Plate washer), tapped dry and blocked to reduce non-specific binding (200 µl/well, 1% BSA/PBS). Following 1 h incubation (room temperature on a shaking platform) the plates were tapped dry and wild type (wt) or mutant OSM-GST from Example 9b added (50 µl/well, 20–0.002 µg/ml, titrated in 1%BSA/PBS). As a positive control polyclonal anti-human OSM antibody (R&D Systems) was also tested (20–0.02 µg/ml). […] Following a 5 h incubation (room temperature on a shaking platform) the plates were washed (×6) and developed using ELISA Amplification System (Life Technologies) as manufacturer's instructions and the OD measured at 490 nm.

gp130-Fc fusion protein [3] = biological target: T2, gp130-Fc fusion protein; assay: competition ELISA: OSM-GST titrated against plate-bound wt OSM for gp130-Fc; single experiment
Protocol: as §1

gp130 on HepG2 B6 cells = biological target: T3, gp130 on HepG2 B6 cells; assay: cell-based or functional assay

Row | Molecule | IC50 (gp130-Fc fusion protein [2]) | IC50 (gp130-Fc fusion protein [3]) | sPAP HepG2 B6 assay: Expt 1 % (EC50 as % of wild type EC50) (gp130 on HepG2 B6 cells) | sPAP HepG2 B6 assay: Expt 1 EC50 (gp130 on HepG2 B6 cells) | sPAP HepG2 B6 assay: Expt 2 % (EC50 as % of wild type EC50) (gp130 on HepG2 B6 cells) | sPAP HepG2 B6 assay: Expt 2 EC50 (gp130 on HepG2 B6 cells) | sPAP HepG2 B6 assay: Mean % of wild type EC50 (gp130 on HepG2 B6 cells) | sPAP HepG2 B6 assay: Expt 3 % (EC50 as % of wild type EC50) (gp130 on HepG2 B6 cells) | sPAP HepG2 B6 assay: Expt 3 EC50 (gp130 on HepG2 B6 cells) | Kd [1]
1 | GGGAGGACGAUGCGGNNNNNNNNNNNNNNNNNNNNNNNNNNNNNNNNNNNNNNNNCCGCAUCGUCCUCCC [40N7 starting random RNA pool] |  |  |  |  |  |  |  |  |  | > 10 µM
2 | OSM-GST mutant Q18A (ligand, Alanine mutant of m4; also called (11)Q18A; 11 Q18A; not shown: Its linker is left out) AAIGSCSKEYRVLLGQLAKQTDLMQDTSRLLDPYIRIQGLDVPKLREHCRERPGAFPSEETLRGLGRRGFLQTLNATLGCVLHRLADLEQRLPKAQDLERSGLNIEDLEKLQMARPNILGLRNNIYCMAQLLDNSDTAEPTKAGRGASQPPTPTPASDAFQRKLEGCRFLHGYHRFMHSVGRVFSKWGESPNRSRR | 0.395 µg/mL | 0.32 µg/mL and 0.31 µg/mL and 0.555 µg/mL | 84% | 0.0202 µg/mL | 68% | 0.0217 µg/mL | 76% |  |  | 
3 | OSM-GST mutant R122A (ligand, not shown: a dimerising Fc or GST; large carriers; small tags and cut ends, Alanine mutant of m4; also called (21)R122A; 21 R122A) AAIGSCSKEYRVLLGQLQKQTDLMQDTSRLLDPYIRIQGLDVPKLREHCRERPGAFPSEETLRGLGRRGFLQTLNATLGCVLHRLADLEQRLPKAQDLERSGLNIEDLEKLQMARPNILGLANNIYCMAQLLDNSDTAEPTKAGRGASQPPTPTPASDAFQRKLEGCRFLHGYHRFMHSVGRVFSKWGESPNRSRR | 0.176 µg/mL | 0.14 µg/mL and 0.22 µg/mL and 0.167 µg/mL | 135% | 0.0324 µg/mL | 43% | 0.0138 µg/mL | 101% | 124% | 0.0473 µg/mL | 
4 | OSM-GST mutant R11A (ligand, not shown: a dimerising Fc or GST; large carriers; small tags and cut ends, Alanine mutant of m4; also called (5)R11A; 5 R11A) AAIGSCSKEYAVLLGQLQKQTDLMQDTSRLLDPYIRIQGLDVPKLREHCRERPGAFPSEETLRGLGRRGFLQTLNATLGCVLHRLADLEQRLPKAQDLERSGLNIEDLEKLQMARPNILGLRNNIYCMAQLLDNSDTAEPTKAGRGASQPPTPTPASDAFQRKLEGCRFLHGYHRFMHSVGRVFSKWGESPNRSRR | 0.239 µg/mL | 0.181 µg/mL and 0.255 µg/mL and 0.28 µg/mL | 118% | 0.0286 µg/mL | 86% | 0.0277 µg/mL | 102% |  |  | 
5 | OSM-GST mutant Q25A (ligand, not shown: a dimerising Fc or GST; large carriers; small tags and cut ends, Alanine mutant of m4; also called (26)Q25A; 26 Q25A) AAIGSCSKEYRVLLGQLQKQTDLMADTSRLLDPYIRIQGLDVPKLREHCRERPGAFPSEETLRGLGRRGFLQTLNATLGCVLHRLADLEQRLPKAQDLERSGLNIEDLEKLQMARPNILGLRNNIYCMAQLLDNSDTAEPTKAGRGASQPPTPTPASDAFQRKLEGCRFLHGYHRFMHSVGRVFSKWGESPNRSRR | 0.044 µg/mL | 0.042 µg/mL and 0.036 µg/mL and 0.055 µg/mL | 55% | 0.0133 µg/mL | 41% | 0.013 µg/mL | 48% |  |  | 
6 | OSM-GST mutant S7A (ligand, not shown: a dimerising Fc or GST; large carriers; small tags and cut ends, Alanine mutant of m4; also called (1)S7A; 1 S7A) AAIGSCAKEYRVLLGQLQKQTDLMQDTSRLLDPYIRIQGLDVPKLREHCRERPGAFPSEETLRGLGRRGFLQTLNATLGCVLHRLADLEQRLPKAQDLERSGLNIEDLEKLQMARPNILGLRNNIYCMAQLLDNSDTAEPTKAGRGASQPPTPTPASDAFQRKLEGCRFLHGYHRFMHSVGRVFSKWGESPNRSRR | 0.133 µg/mL | 0.199 µg/mL and 0.078 µg/mL and 0.121 µg/mL | 50% | 0.012 µg/mL | 69% | 0.0222 µg/mL | 59.5% |  |  | 
7 | OSM-GST mutant Q130A (ligand, not shown: a dimerising Fc or GST; large carriers; small tags and cut ends, Alanine mutant of m4; also called (25)Y130A; 25 Q130A) AAIGSCSKEYRVLLGQLQKQTDLMQDTSRLLDPYIRIQGLDVPKLREHCRERPGAFPSEETLRGLGRRGFLQTLNATLGCVLHRLADLEQRLPKAQDLERSGLNIEDLEKLQMARPNILGLRNNIYCMAALLDNSDTAEPTKAGRGASQPPTPTPASDAFQRKLEGCRFLHGYHRFMHSVGRVFSKWGESPNRSRR | 0.14 µg/mL | 0.145 µg/mL and 0.18 µg/mL and 0.094 µg/mL | 52% | 0.0125 µg/mL | 26% | 0.0082 µg/mL | 39% |  |  | 

Continued, in another order:

Row | IC50 (gp130-Fc fusion protein [2]) | IC50 (gp130-Fc fusion protein [3]) | sPAP HepG2 B6 assay: Expt 1 % (EC50 as % of wild type EC50) (gp130 on HepG2 B6 cells) | sPAP HepG2 B6 assay: Expt 1 EC50 (gp130 on HepG2 B6 cells) | sPAP HepG2 B6 assay: Expt 2 % (EC50 as % of wild type EC50) (gp130 on HepG2 B6 cells) | sPAP HepG2 B6 assay: Expt 2 EC50 (gp130 on HepG2 B6 cells) | sPAP HepG2 B6 assay: Mean % of wild type EC50 (gp130 on HepG2 B6 cells) | sPAP HepG2 B6 assay: Expt 3 % (EC50 as % of wild type EC50) (gp130 on HepG2 B6 cells) | sPAP HepG2 B6 assay: Expt 3 EC50 (gp130 on HepG2 B6 cells) | Molecule | Kd [1]
8 | 0.084 µg/mL | 0.108 µg/mL and 0.044 µg/mL and 0.101 µg/mL | 71% | 0.017 µg/mL | 33% | 0.0105 µg/mL | 52% |  |  | OSM-GST mutant T21A (ligand, not shown: a dimerising Fc or GST; large carriers; small tags and cut ends, Alanine mutant of m4; also called (14)T21A; 14 T21A) AAIGSCSKEYRVLLGQLQKQADLMQDTSRLLDPYIRIQGLDVPKLREHCRERPGAFPSEETLRGLGRRGFLQTLNATLGCVLHRLADLEQRLPKAQDLERSGLNIEDLEKLQMARPNILGLRNNIYCMAQLLDNSDTAEPTKAGRGASQPPTPTPASDAFQRKLEGCRFLHGYHRFMHSVGRVFSKWGESPNRSRR | 
9 | 0.223 µg/mL | 0.32 µg/mL and 0.18 µg/mL and 0.168 µg/mL | 134% | 0.0324 µg/mL | 256% | 0.082 µg/mL | 195% |  |  | OSM-GST mutant Y10A (ligand, not shown: a dimerising Fc or GST; large carriers; small tags and cut ends, Alanine mutant of m4; also called (4)Y10A; 4 Y10A) AAIGSCSKEARVLLGQLQKQTDLMQDTSRLLDPYIRIQGLDVPKLREHCRERPGAFPSEETLRGLGRRGFLQTLNATLGCVLHRLADLEQRLPKAQDLERSGLNIEDLEKLQMARPNILGLRNNIYCMAQLLDNSDTAEPTKAGRGASQPPTPTPASDAFQRKLEGCRFLHGYHRFMHSVGRVFSKWGESPNRSRR | 
10 | 0.382 µg/mL | 0.386 µg/mL and 0.359 µg/mL and 0.4 µg/mL | 386% | 0.093 µg/mL | 32% | 0.0103 µg/mL | 175% | 106% | 0.0408 µg/mL | OSM-GST mutant Y126A (ligand, not shown: a dimerising Fc or GST; large carriers; small tags and cut ends, Alanine mutant of m4; also called (24)Y126A; 24 Y126A) AAIGSCSKEYRVLLGQLQKQTDLMQDTSRLLDPYIRIQGLDVPKLREHCRERPGAFPSEETLRGLGRRGFLQTLNATLGCVLHRLADLEQRLPKAQDLERSGLNIEDLEKLQMARPNILGLRNNIACMAQLLDNSDTAEPTKAGRGASQPPTPTPASDAFQRKLEGCRFLHGYHRFMHSVGRVFSKWGESPNRSRR | 
